# Test results: patent US20230277618A1 (BROAD INSTITUTE, published 2023)
# B1: XPR1 SPX domain only construct with C-terminal V5 tag (other, human, UniProt Q9UBH6 1-224, looked up, not shown: small tags and cut ends)
# chain: MKFAEHLSAHITPEWRKQYIQYEAFKDMLYSAQDQAPSVEVTDEDTVKRYFAKFEEKFFQTCEKELAKINTFYSEKLAEAQRRFATLQNELQSSLDAQKESTGVTTLRQRRKPVFHLSHEERVQHRNIKDLKLAFSEFYLSLILLQNYQNLNFTGFRKILKKHDKILETSRGADWRVAHVEVAPFYTCKKINQLISETEAVVTNELEDGDRQKAMKRLRVPPLG
# notes: domain: SPX domain; also called SPX domain only constructs; N-terminal SPX domain of XPR1
# Target: T1, KIDINS220 (kinase D interacting substrate 220), endogenous in HEK-293T cells (human, UniProt Q9ULH0 1-1771)
# T1 construct: whole, on cells; Endogenous protein of the 293 cells, detected by immunoblot after co-immunoprecipitation; also called ARMS; SINO
# Experiment: co-immunoprecipitation by V5 tag from HEK-293T cells, immunoblot for endogenous KIDINS220
# T1 sequence (Q9ULH0 whole entry): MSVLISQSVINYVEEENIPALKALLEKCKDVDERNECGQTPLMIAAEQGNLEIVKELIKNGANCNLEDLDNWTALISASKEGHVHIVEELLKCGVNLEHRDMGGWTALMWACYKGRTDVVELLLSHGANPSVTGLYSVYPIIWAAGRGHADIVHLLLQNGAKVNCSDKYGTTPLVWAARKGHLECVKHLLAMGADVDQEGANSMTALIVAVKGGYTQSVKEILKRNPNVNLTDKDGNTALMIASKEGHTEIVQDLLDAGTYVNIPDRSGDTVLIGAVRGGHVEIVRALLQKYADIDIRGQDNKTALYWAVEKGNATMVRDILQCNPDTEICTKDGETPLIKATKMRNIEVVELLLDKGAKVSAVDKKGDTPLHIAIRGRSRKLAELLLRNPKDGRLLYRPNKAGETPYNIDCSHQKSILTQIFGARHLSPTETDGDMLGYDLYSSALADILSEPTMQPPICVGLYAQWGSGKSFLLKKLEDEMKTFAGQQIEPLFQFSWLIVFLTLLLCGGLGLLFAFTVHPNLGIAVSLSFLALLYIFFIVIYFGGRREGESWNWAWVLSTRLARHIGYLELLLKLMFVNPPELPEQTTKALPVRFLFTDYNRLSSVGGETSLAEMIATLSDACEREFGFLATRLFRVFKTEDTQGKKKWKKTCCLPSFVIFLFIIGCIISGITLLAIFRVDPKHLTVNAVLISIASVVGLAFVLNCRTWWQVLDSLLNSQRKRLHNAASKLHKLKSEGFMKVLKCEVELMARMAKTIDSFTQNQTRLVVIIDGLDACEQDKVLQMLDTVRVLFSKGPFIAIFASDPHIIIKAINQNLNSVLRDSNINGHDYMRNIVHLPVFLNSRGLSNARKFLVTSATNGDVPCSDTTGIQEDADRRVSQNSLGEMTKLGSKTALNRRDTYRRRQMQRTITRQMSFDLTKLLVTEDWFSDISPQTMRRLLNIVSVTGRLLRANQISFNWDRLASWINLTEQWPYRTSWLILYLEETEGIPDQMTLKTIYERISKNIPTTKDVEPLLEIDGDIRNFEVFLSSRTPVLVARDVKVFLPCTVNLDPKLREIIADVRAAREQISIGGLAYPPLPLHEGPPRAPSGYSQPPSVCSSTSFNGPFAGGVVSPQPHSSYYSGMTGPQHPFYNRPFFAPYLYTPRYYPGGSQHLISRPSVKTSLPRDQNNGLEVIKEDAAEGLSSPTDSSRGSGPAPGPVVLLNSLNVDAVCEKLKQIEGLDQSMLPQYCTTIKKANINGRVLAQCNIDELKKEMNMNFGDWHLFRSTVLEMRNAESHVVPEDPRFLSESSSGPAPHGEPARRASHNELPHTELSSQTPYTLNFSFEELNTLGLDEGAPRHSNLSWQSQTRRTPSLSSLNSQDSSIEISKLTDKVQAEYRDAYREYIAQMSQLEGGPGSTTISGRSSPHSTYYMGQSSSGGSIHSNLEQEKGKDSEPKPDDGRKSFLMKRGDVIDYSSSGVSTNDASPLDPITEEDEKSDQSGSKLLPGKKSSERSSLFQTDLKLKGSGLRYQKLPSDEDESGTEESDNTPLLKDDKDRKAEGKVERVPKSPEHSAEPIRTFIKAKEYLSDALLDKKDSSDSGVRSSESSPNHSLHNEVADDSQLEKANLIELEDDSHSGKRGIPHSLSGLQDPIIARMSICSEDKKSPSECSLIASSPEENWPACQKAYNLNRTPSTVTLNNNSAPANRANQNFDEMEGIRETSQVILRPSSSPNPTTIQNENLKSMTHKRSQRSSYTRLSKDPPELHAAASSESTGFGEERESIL
binder,measurement,value
B1,binding result,no binding
